Reference: patent US20210230272A1

Columns and labels:
[1] = biological target: IL10 antibody (Sino biological, Cat #SEKA10947); experiment: ELISA, same conditions as the antigen-coated ELISA
[2] = biological target: human PD-L1 (human) (UniProt Q9NZQ7); experiment: ELISA, PD-L1 coated; control of LB319
[3] = biological target: human PD-L1 (human) (UniProt Q9NZQ7); experiment: ELISA, PD-L1 coated; control of LB320
[4] = biological target: mice CLDN18.2 (mice) (UniProt P56857); experiment: cell ELISA, mCLDN18.2+ cells
[5] = biological target: human CLDN18.2 (human) (UniProt P56856); experiment: flow cytometry, CF488 labeled antibody 1 µg/ml, hCLDN18.2+ cells
[6] = biological target: human CLDN18.2 (human) (UniProt P56856); experiment: flow cytometry, CF633 labeled antibody 1 µg/ml, hCLDN18.2+ cells
[7] = biological target: human CLDN18.2 (human) (UniProt P56856); experiment: flow cytometry, CF488 labeled antibody 10 µg/ml, hCLDN18.2+ cells
[8] = biological target: human CLDN18.2 (human) (UniProt P56856); experiment: flow cytometry, CF633 labeled antibody 10 µg/ml, hCLDN18.2+ cells

Chain of human PD-L1 (human) (Q9NZQ7 19-238): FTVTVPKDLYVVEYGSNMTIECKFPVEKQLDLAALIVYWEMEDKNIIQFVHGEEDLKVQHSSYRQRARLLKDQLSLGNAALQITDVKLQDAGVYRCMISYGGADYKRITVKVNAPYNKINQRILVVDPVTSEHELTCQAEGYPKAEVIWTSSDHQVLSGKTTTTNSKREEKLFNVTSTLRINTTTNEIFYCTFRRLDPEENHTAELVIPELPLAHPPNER

IL10 (Peprotech, Cat #: 200-10) (from UniProt P22301 19-178) (ligand)
EC50 [1]: 4.53 nM

LB318 (Durvalumab) (antibody)
EC50 [2]: 0.072 nM
EC50 [3]: 0.072 nM

Neg IgG (antibody)
Emax [4]: 0.19
Binding value (FACS fluorescence intensity) [5]: 1750
Binding value (FACS fluorescence intensity) [6]: 23
Binding value (FACS fluorescence intensity) [7]: 3480
Binding value (FACS fluorescence intensity) [8]: 23.2
